Measurements from PMC7883444.

Molecular target: HRD1 (HMG-CoA reductase degradation protein 1, synoviolin) (UniProt Q86TM6)
Assay: anti-Myc co-IP, anti-Flag blot
Details: reference: WT Flag-PFKP; sites S386

## PFKP (platelet isoform of phosphofructokinase) (from UniProt Q01813) Flag-PFKP S386A
  binding against the reference: stronger
